Consider two molecules from patent US20020115613A1, “Treatment of prostate cancer” (priority 2001, published 2002).

In one assay the test system is prostate cancer cells. The settings on record: cited from earlier work.
A further assay concerns PC3AR cells. As to the kind of experiment: Western blotting of death receptors, caspases, Bid, NFκB, XIAP. Format: cell-based. As to the method:
(§1) Prostate cancer cell lines, PC3Neo and PC3AR were provided by Dr. K. Burnstein, University of Miami School of Medicine, Miami, Fla. PC3AR cells are a clonal cell line derived by stable transfection of PC3 with a full-length human AR cDNA (Dai, J. L., et al., Steroids, 61, 531-539, 1996). PC3Neo cells were stably transfected with neomycin vector alone. Cells were grown in RPMI 1640 with 5% FBS (Hyclone, Logan, Utah), 100 units/ml penicillin, 100 μg/ml streptomycin, 0.25 μg/ml fungizone and G418 (350 μg/ml) to select for neomycin-resistant cells. In experiments using antiandrogens, cells were maintained in 5% DCC stripped serum for at least 48 hr before treatment with hydroxyflutamide (Sigma Chemical Co., St. Louis, Mo.). The medium and all the drugs were replaced every two days. Cells were treated with 200 ng/ml, 400 ng/ml or 600 ng/ml of TRAIL (Biomol Research Laboratories, Inc, Plymouth Meeting, Pa.) for 2, 4, 6, 8, 16 and 20 hr. Cells were treated with 5 μM hydroxyflutamide for 5 days before the commencement of treatment with 400 ng/ml TRAIL.
(§2) Cells were harvested by trypsinization, washed in 1×PBS and cell pellets resuspended in lysis buffer (100 mM Tris-HCl pH 8.0, 0.1% Triton X 100 and protease inhibitor cocktail from Roche Diagnostic Corporation, Indianapolis, Ind.). Cells were incubated over ice for 30 min and centrifuged at 10,000 g at 4° C. for 10 min. The supernatant was collected and the protein concentration estimated using Bio-Rad protein reagent (Bio-Rad Laboratories, Hercules, Calif.).
(§3) Proteins (50 μg, unless stated otherwise) were separated on NuPAGE 10% Bis-Tris gels (Novex pre-cast mini gels, InVitrogen, Carlsbad, Calif.) at 100 volts for 1 hour in the presence of 1×MES-SDS running buffer (InVitrogen, Carlsbad, Calif.). Separated proteins were transferred to (PVDF) membranes (Bio-Rad Laboratories, Hercules, Calif.) at 42 volts for 2.5 hr using a Novex XCell II blotting apparatus in MES transfer buffer in the presence of NuPAGE antioxidant. Transfer of the proteins to the polyvinylidene difluoride (PVDF) membrane was confirmed by staining with Ponceau S (Sigma, St. Louis, Mo.). The blots were blocked in 5% non-fat dry milk in TBS, washed twice for 10 min each with TBS containing 0.1% Tween-20 and incubated for 2 hr at RT with primary antibody diluted in TBS containing 0.5% milk.
(§4) The following antibodies were used in the immunoblots: DR4, DR5 and cytochrome c (Imgenex, San Diego, Calif.), BID (BioSource International, Camarillo, Calif.), caspases-8, -9, and Akt (Cell Signaling Technology, Beverely, Mass.), caspase-3 (BD Pharmingen, San Diego, Calif.) Iκβ and XIAP (Cell Signaling Technology, Beverly, Mass.), cFLIP (StressGen Biotechnology Corp, Victoria, Canada), actin (Sigma Chemical Co., St. Louis, Mo.) and Cox II (Molecular Probes, Eugene, Oreg.). Immunoreactive bands were visualized using ECL detection system (Amersham, Pharmacia Biotech, Arlington Heights, Ill.) and signals were developed after exposure to X-ray film (X-Omat films, Eastman Kodak Company, Rochester, N.Y.).
(§5) For separation of mitochondrial and cytosolic fractions, cells were trypsinized, centrifuged at 600 g for 10 min at 4° C., washed twice in ice-cold PBS and re-suspended in buffer A (20 mM HEPES-KOH, pH 7.2, 10 mM KCl, 1.5 mM MgC12, 1 mM sodium-EDTA, 1 mM sodium-EGTA, 250 mM sucrose and protease inhibitor cocktail). Cells were homogenized on ice with a glass Dounce homogenizer (30 strokes) and were centrifuged at 750 g for 5 min at 4° C. The supernatant was centrifuged for 15 min at 10,000 g at 4° C. to pellet mitochondria, which was washed and resuspended in lysis buffer. The supernatant was centrifuged at 100,000 g for 60 min at 4° C. and S-100 cytosol was collected. […]
On the technique in general: A western blot detects proteins with antibodies after separation by electrophoresis.

The test system of the next assay is PC3Neo cells. The assay is described as above. Format: cell-based. On the procedure:
as §1, §2, §3, §4, §5

[1] abbreviates: 400 ng/ml TRAIL, by 2 hr, FIG. 2C.

With `CC#C[C@]1(O)CC[C@H]2[C@@H]3CCC4=CC(=O)CCC4=C3[C@@H](c3ccc(N(C)C)cc3)C[C@@]21C` [Mifepristone], the “ability to induce apoptosis in prostate cancer cells (Sridhar et al., 2001)” value in the assay on prostate cancer cells was “marginal ability to induce apoptosis”.

B1: Tumor necrosis factor α—Related Apoptosis Inducing Ligand (protein, UniProt P50591 1-281, looked up)
Tumor necrosis factor ligand …: MAMMEVQGGPSLGQTCVLIVIFTVLLQSLCVAVTYVYFTNELKQMQDKYSKSGIACFLKEDDSYWDPNDEESMNSPCWQVKWQLRQLVRKMILRTSEETISTVQEKQQNISPLVRERGPQRVAAHITGTRGRSNTLSSPNSKNEKALGRKINSWESSRSGHSFLSNLHLRNGELVIHEKGFYYIYSQTYFRFQEEIKENTKNDKQMVQYIYKYTSYPDPILLMKSARNSCWSKDAEYGLYSIYQGGIFELKENDRIFVSVTNEHLIDMDHEASFFGAFLVG
notes: 281 amino acid type II transmembrane protein of the tumor necrosis factor α family; purchased from Biomol
For B1, the entries for the “increase in expression of DR5” value with PC3AR cells (setting [1]) and with PC3Neo cells (setting [1]) were ~5 fold and ~2 fold, respectively. Besides, the “increase in expression of DR5 (peak)” value in the assay on PC3AR cells (400 ng/ml TRAIL, by 16 hr, FIG. 2C) is ~8 fold. For the same molecule, the DcR2 expression result in the assay with PC3AR cells (TRAIL treatment) and in the assay with PC3Neo cells (TRAIL treatment) was “did not significantly alter DcR2 expression” throughout. For the same molecule, the values for the DR4 levels result in the assay with PC3AR cells (TRAIL-treated) and in the assay on PC3Neo cells (TRAIL-treated) were “increased” and “did not show significant changes”, respectively. Moreover, in the assay with PC3AR cells (by 4 hr, lasted until 16 hr), the “cleaved caspase-9” value was “significant levels of cleaved caspase-9 were detected”. Also, the tBid in mitochondria result in the assay on PC3AR cells (mitochondrial fraction, not shown) is on record as “translocated into mitochondria within 2 hours”; in the assay on PC3Neo cells (mitochondrial fraction, highest level by 2 hr, not shown), “significantly lower than that seen in PC3AR cells”. Besides, the XIAP levels result in the assay on PC3AR cells (not shown) and with PC3Neo cells (not shown) was “did not alter XIAP levels significantly” in each case. The “cleaved caspase-3 (p17)” value in the assay with PC3AR cells (not shown) and in the assay with PC3Neo cells (not shown) was “present in both cell lines as early as 2 hr” in each case. Moreover, the “expression of NFκB” value in the assay on PC3AR cells (not shown) and in the assay on PC3Neo cells (not shown) was “increased the expression of NFκB levels” throughout. The “mature p12 caspase-3 product” value in the assay with PC3AR cells (not shown) and in the assay on PC3Neo cells (not shown) was “noted only in PC3AR” throughout. In addition, the tBid expression result is “detected up to 8 hr of treatment” in the assay on PC3AR cells (not shown) and “little tBid was present” in the assay on PC3Neo cells (by 4 hr of TRAIL treatment, not shown). For the same molecule, the “cleavage of procaspase-8” value was “induced cleavage of procaspase-8” with PC3AR cells (within 2 hr, not shown) and “induced cleavage of procaspase-8” in the assay with PC3Neo cells (within 2 hr, not shown). In the assay on PC3Neo cells, the “activated caspase-9” value was “not detected”.
